Measured values as given in article doi:10.1101/2020.01.21.914671.
pKd: −log10 of the molar value. “And” between values parts separate entries of the source, which are not always exact repeats. Identical values can stand only once.

Experiments:
[1] = target: TANV16L (tanapoxvirus 16L) lacking the C-terminal 23 residues, wild type (tanapoxvirus); assay: AUC
[2] = target: human Bak BH3 motif peptide (26-mer) (human); assay: ITC
[3] = target: human Bax BH3 motif peptide (28-mer) (human); assay: ITC

For “TANV16L (tanapoxvirus 16L) lacking the C-terminal 23 residues, wild type (domain or fragment)”, the ratio of monomer:dimer [1] was 3.5 :1, the stoichiometry N [1] was 2 and 4 and the pKd [2] was 7.42. The pKd [3] was 7.15.
